Biological target: T1, 重组FABP蛋白(自产，140618) (human, UniProt P05413 1-133, limits assumed)
T1 construct: The coated protein is only called 'recombinant FABP protein'; also called 心型脂肪酸结合蛋白; H-FABP
Assay: indirect ELISA, recombinant FABP protein coated, CHO transient supernatant, goat anti-mouse IgG-HRP

T1 sequence (P05413 whole entry): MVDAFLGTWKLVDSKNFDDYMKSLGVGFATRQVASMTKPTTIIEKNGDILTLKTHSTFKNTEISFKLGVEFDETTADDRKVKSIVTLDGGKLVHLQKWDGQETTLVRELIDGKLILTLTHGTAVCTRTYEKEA

B1: Anti-FABP 8F3 重组抗体 (抗人心型脂肪酸结合蛋白的重组抗体) (antibody, V domains shown)
VH: QVQLQQPGADLVRPGASVKLSCKTSGYSFTGYFMNWVKQRPGQGLEWIGMIHASDSSTRLNQKFKDKATLTVDKSSTTVYMQFSSPTSEDSAVYYCARGIRDFAYWGQGTLVTVSA
VL: DIVMTQSQKFMSTSVGDRVSITCKASNNIASSVAWYQLRPGQSPKALIYSPTYRYSGIPDRFTGSGSGTDFTLTISNVQSEDLAEYFCQQYNSYPLSFGSGTKLEIK
- OD450 (reference 630 nm) at 1000-fold dilution of the supernatant: > 1 OD

Reference: patent CN111363035A (DONGGUAN PENGZHI BIOTECHNOLOGY CO LTD, dated 2020)
